In the supplement of paper PMC10126150:
± gives the standard deviation of the averaged measurements.

system: ATP; test: switch fluorescence ratio, 500 uM ATP over buffer (Cy3 cluster intensity, sum of 5 cycles each) (fold (ratio)); higher = stronger signal-on switching upon ATP binding; sequences stand for … in TCGTCGGCAGCGTCAGATGTGTATAAGAGACAGTTTTTTTTTTTTTTTTTTTTTTTTT…TC; conditions: aptamer strand: ATP DNA aptamer (quencher-CACCTGGGGGAGTATTGCGGAGGAAGG + anchor), 100 nM annealed; ATP concentration: 500 uM
Method in brief: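 The quencher-labelled ATP aptamer, at 100 nM, was annealed to Cy3-labelled switching-strand clusters on a modified Illumina MiSeq flow-cell. The clusters were imaged in selection buffer, then after 15 min with 500 uM ATP at 22 °C, and this buffer/ATP cycle ran five times with NaOH stripping and re-annealing between runs. Per-cluster fluorescence ratios, summed target-cycle over summed buffer-cycle Cy3 intensity, were averaged per switch-domain sequence. Clusters outside 100-1000 RFU were excluded.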
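Note: ATP exposure 15 min at 22 °C before imaging.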

Sequence	switch fluorescence ratio
GGTGGGTGGG	0.999 ± 0.042
GGTGGTACGT	0.999 ± 0.022
GGTGGTACTG	1.01 ± 0.037
GGTGGTAGGC	1 ± 0.046
GGTGGTCGGG	0.982 ± 0.0053
GGTGGTGACT	1.01 ± 0.036
GGTGGTGGGC	0.954 ± 0.01
GGTGGTGTCG	1 ± 0.017
GGTGGTGTTT	1 ± 0.026
GGTGGTTGGA	1.02 ± 0.04
GGTGTAAGAA	1.002 ± 0.0085
GGTGTACGGA	0.972 ± 0.043
GGTGTATTAG	1 ± 0.029
GGTGTATTTG	0.981 ± 0.013
GGTGTCTTCA	1.06 ± 0.076
GGTGTGAATT	1.02 ± 0.034
GGTGTGAGGT	0.9973 ± 0.0093
GGTGTGAGTA	1.01 ± 0.016
GGTGTGATTG	0.977 ± 0.04
GGTGTGCACC	1 ± 0.025
GGTGTGGGCG	0.983 ± 0.079
GGTGTGTCTC	1.03 ± 0.065
GGTGTGTTGC	0.998 ± 0.06
GGTGTTAAAC	1.01 ± 0.035
GGTGTTATGT	1.01 ± 0.016

Sequence	switch fluorescence ratio
GGTGTTCTGA	1.01 ± 0.023
GGTGTTGGCT	1.02 ± 0.059
GGTGTTGGTG	1.01 ± 0.025
GGTGTTTGCT	0.965 ± 0.022
GGTTAAGTGT	1.01 ± 0.021
GGTTACCTTC	1.356 ± 0.0068
GGTTACTGGT	1.01 ± 0.03
GGTTAGATAC	1.19 ± 0.025
GGTTAGATGT	0.9766 ± 0.0075
GGTTAGGGGA	0.994 ± 0.036
GGTTATAGGA	0.99 ± 0.036
GGTTATAGTC	0.966 ± 0.02
GGTTATATAG	1.01 ± 0.016
GGTTATCGTA	1.02 ± 0.011
GGTTATGAGG	0.994 ± 0.031
GGTTATGCGG	1.01 ± 0.046
GGTTATTGCT	1.02 ± 0.0033
GGTTATTTGT	0.992 ± 0.041
GGTTATTTTG	1.01 ± 0.015
GGTTCAATTG	1.03 ± 0.089
GGTTCAGATG	1.0081 ± 0.00081
GGTTCAGCTT	0.981 ± 0.013
GGTTCAGGCT	0.977 ± 0.025
GGTTCCGTGG	0.994 ± 0.023
GGTTGAGGGG	0.985 ± 0.034

Sequence	switch fluorescence ratio
GGTTGAGGTG	1.01 ± 0.039
GGTTGATAAT	1.002 ± 0.0043
GGTTGCGGCA	1.01 ± 0.041
GGTTGCTAGG	0.9916 ± 0.0037
GGTTGGAATT	1.01 ± 0.025
GGTTGGATTT	0.978 ± 0.017
GGTTGGGATC	0.9513 ± 0.0082
GGTTGGGGGT	1.01 ± 0.045
GGTTGGGTCC	0.9701 ± 0.0018
GGTTGGTGGT	1.028 ± 0.0064
GGTTGGTGTG	0.967 ± 0.023
GGTTGGTTTC	1.01 ± 0.055
GGTTGGTTTG	0.99 ± 0.06
GGTTGGTTTT	0.992 ± 0.024
GGTTGTCCAG	0.9966 ± 0.0014
GGTTGTCTTA	0.9726 ± 0.0018
GGTTGTTTTG	1.017 ± 0.0097
GGTTTAAACT	0.987 ± 0.016
GGTTTAAAGG	0.996 ± 0.015
GGTTTAAATT	1 ± 0.018
GGTTTAAGAT	1.0263 ± 0.00079
GGTTTAATTT	0.993 ± 0.026
GGTTTACGGA	0.964 ± 0.01
GGTTTAGATG	1.02 ± 0.015
GGTTTAGGGA	0.996 ± 0.039

Sequence	switch fluorescence ratio
GGTTTATATG	1.035 ± 0.0011
GGTTTATTGT	0.993 ± 0.056
GGTTTCAATA	1.0088 ± 0.00023
GGTTTCATAT	0.996 ± 0.026
GGTTTCCCT	0.973 ± 0.019
GGTTTCCTGG	0.971 ± 0.031
GGTTTCGCGA	1.07 ± 0.053
GGTTTCGGCA	1.01 ± 0.0045
GGTTTCTCTT	1.003 ± 0.0099
GGTTTGAGGT	0.993 ± 0.027
GGTTTGCGGG	1.01 ± 0.0095
GGTTTGGCTG	0.993 ± 0.038
GGTTTGGGG	1.03 ± 0.016
GGTTTGGGGT	0.99 ± 0.032
GGTTTGGGTT	0.998 ± 0.037
GGTTTGGTG	1.006 ± 0.0058
GGTTTTAATG	0.988 ± 0.031
GGTTTTAGTT	0.986 ± 0.03
GGTTTTATAT	1.006 ± 0.0068
GGTTTTGAAG	0.9959 ± 0.0063
GGTTTTGACA	0.9941 ± 0.0065
GGTTTTGAGA	1.02 ± 0.029
GGTTTTGAGG	0.973 ± 0.011
GGTTTTGCAG	0.9946 ± 0.0069
GGTTTTGTGG	1.01 ± 0.03
